# In the DeepSol protein solubility set:
# Assay: soluble on expression in E. coli; label from the status in PepcDB or PDB records
row,Sequence,soluble on expression in E. coli
1,SLQSYQSVDSIRAAALATVGPDAEAEATLDPGLRMPGCPIALQAKPTGTNTVEVACPQPAGWRLFVPLKVRRNQDVLVLRRGISAGETISLADISIEKRDAARIVGAVLADPVAAVGKTARRILPAGSLLSANDLVSQRLVRRGDTVPLVSRNGGLEVRMSGRALSDAGENERVSVENSSSRRVVQGIVEASGTVVVSR,soluble
2,SIPYQEWHSQLQSLYDSQIFHNWALCQDVHLNDEKDGLLLRLIPTRQLQKNTERIENKLLNHIELYLTYSKVYNEPLLLLRIWEEKSIDGIPMTKLMLPTDIESLLDVQGKFQLGLDTIINLEGSVWYSFHPCDTSCIVGDQAEFMSTYLRRWVSIFIFSWLGYEDS,soluble
3,MGSDKIHHHHHHMAAGSTLWTRIPAMQQQNHPPYTLAIAQGESISLDPSHFTPEHWQALAAVTGTSKGRYTTWFVRHPEANQDWVLRHYWRGGLMEKFSKDRYLYTGMANTRAIAELALLEKLHAEGFPVPRPVGARVRRYALWYSADILIERMPGCRDLLAWLEQGPLDEAEWKALGVCIARFHHRGVYHADLNAKNILKGPQGFALIDFDRGEIRNPANSWQQANLSRLRRSFDKEKGKLPSLAFDESCWQWLLEGYAAA,not soluble
4,MAHHHHHHMLKFFTEKANHQALKAVLCAVFVQKPLEVTLGSTYSTPYLQLPKSRALLYSCNEAARLIWSTHAAPLPADNSLEGEAEWLEWESTVLTPALTPLYTHRRITGEAEAALKKLDSTIEEHQGTVAVKGAPSSTSFLVDSVLFASLLPALCEGGLLPAAQAARVPHLVKWFQAFQAEHAELIASAFDVLSVQECGDFLRVP,soluble
5,MRSLADFEFNNAPLCDGMILASEMIRLDFPTQFVYDELERLVSLAQEEISQLLSQDEQLEKLLALFYGEWGFTDSRGVYRLSDALWLDKVLKKRQGSAVSLGAILLWIANRLDLPLVPVIFPTQLILRIESLEGEMWLINPFNGETLDEHTLEVWLKGNISPVAELFNEDLDEADNAEVIRKLLDTLKSSLMEERQMELALRVSEALLQFNPEDPYEIRDRGLIYAQLECEHVALTDLSYFVEQCPEDPISEMIRAQINTIAHKQIVLHLEHHHHHH,not soluble
6,MAHHHHHHMHSSPSKKKDLSNGACPAKEKEASKRKQSFNDVELEIDDDIITHLSSRICNKNVTHKILKINNLIDDQMHDYIANGRASEISESNDESDAHEGVERAHLNLRNGYAGCQHGDESSSNTISNDLPERKAISSEQVPTYELNKEVQGKSKAKGKGKGKGELLSDDPHLEEPLAEGHTHFDRIKMMNLLGENTIVYNSRDDQNNVLFLCYDEKSEQCDVCDRYRKNYMSNMHPSSCVPLRGGAAMKGDAAINGNAPINGVAATNGAAAINGTAAIDALSDYFFVLGSTSNSRKYILKQSSLDFLSVRIHIDEKKIGCRKSHDPLTLTANIAVGKGLKLLNMIKTDSELSKQIAELSKGKKVVLLVGDEVIYCNNKIYEKPKNEKEASNFLKSYNNSKCYSYSSITLIELETEKIITGIDESIINVYDMDDSVVKKILDDSSIYFCAGALKIENTHMHRYIKVIKGNIDSIFGLSLNLLFHLVNFL,not soluble
7,MSYDICIIGSGAGASPIAHQLSKAGAKVLVLEKGPWLTEKEFFKDELTISIHDAYNPKLTDEQHVIEEEYFDENDKPFWQGEKTSDSGWSWWNGNVVGGSSNFMSGYFHRLKPIDFRLKSEFGAISGANVEDWPISYDELEPYYAKVEREVGVSGRVVEHPHQEPRSTDFPYPPIAELPMSSWIDKAAQKIGYHAIPVPRAILSKPAMGRRSCEYSGYCSSYGCASGAKGSGRAALLNNAVASGNCTIQANAKVYKIATDKQGEITGVHYYDKIGRKKSVTAKIYVVACQAVETSRLLLASTGEKFPQGLANNNGQVGKNLLFSGGGTGQGDFNYADLSDKQVGELKQVGPFINRALQDWYQIADKSFTGANAKGQAKGGTIDFLFHQNPIARARGTQWGSDQNGDDKLLWGEDLKQSLKTEFTSYKTLRFEVFNDWLPTDDCFVSLDNEVTDQWGDPVAKVRIGYHDHDLEVGEYLSKKAEKLLEALGAKNVSSSVSGYPSTNLMAGGCRFGNDPKTSVLNKTCQAHEVDNLYVTDGSFMPTGGSVPYTFTIYANAFRVADKIKAHWLTLKSLEHHHHHH,not soluble
8,MKTVSQLIDMKQKQTKISMVTAYDFPSAKQVEAAGIDMILVGDSLGMTVLGYESTVQVTLADMIHHGRAVRRGAPNTFVVVDMPIGAVGISMTQDLNHALKLYQETNANAIKAEGAHITPFIEKATAIGIPVVAHLGLTPQSVGVMGYKLQGATKEAAEQLILDAKNVEQAGAVALVLEAIPNDLAEEISKHLTIPVIGIGAGKGTDGQVLVYHDMLNYGVEHKAKFVKQFADFSVGVDGLKQYDQEVKSGAFPSEEYTYKKKIMNEVNNNDLEHHHHHH,soluble
9,LTFSLNFTNKSNDIYGTGWLFDWKGDEKALGIDGSFVPSITSNIDNSLLKDDQFTVYLATNLHVADALRNDQDYEPYKKDQNKQDFTENTKTEFFSLGK,soluble
10,AIADELNSPLGERAQGASLAHVVWSDPQWLERYPLTFENVLTYFSRSPFYDPTCNNELVRMQMHPELQGEMLYYTQREEELLLGMQGVEYVPLCSSDAHELFIIRKQVRRSADEVHVTNLYYILYGQVYEAPAFSTVLLVRLRQSADFLVRSLGLLRQWLSKKEYGEPGATGHGHEDTLLLQLLRKAQQRNRQL,soluble
11,MGSDKIHHHHHHMNIAIDARGINLYRGTGIGTYTENLVRELLNIDEENSYTLYWYGNNYKDFIKSNTKINIVSKGCHSFFEKCYFPENIIKNSIEIYHVPQNGIGLDQNVSCIKVSTVHDLIPYIMPETVGKGYLLKFLKNMPFIIENSDAILTVSEYSKKDILKYFPINEDKIYVTPLAANYNYKPLSREHCKKFIEKNYSISDPFVLYLGGFSKRKNVRNLILAFADASKKLSKKHNLVIIGLCRDELESLKDLCRHLNISNEVIFTGYIGERFLPVFYNACELFVYPSLYEGFGLPVLEAMSCKTPVVTSNISSIPEIAGDSAVLINPLDTSELRDAILNILEDSKLKQKLSIEGFNRSRKFSWKNTSKKTLEAYSNIYNTFA,not soluble
12,MDALKLLTNRRSSKKLKHPAPDAAELEQIFQAATQVPDHGNMRPFRFTVIQGEVGLQRFRDVLKQTVAELNFGDDAMKKAEKVGNMAPMVIGVTFAPNRDVPKPKPEWEQMLTAGCAAYALQLAATAQGFDNVWITGMWVNSPLLREAFGCADKDKIIGLMMVGTPTEEVHKPKNTDLEAFVSHW,not soluble
13,MGSDKIHHHHHHMANSHDGNAQVLSYPKHPPKDFSDLAATLIRNGLGRVDAETLERHLEQVGYFRLKGYWYQFLSPSSSCDYKHVLPFRKGTQFQQIWCRYIFDQELRTLVFDGIITFEIYLKSFLAHELSLFGGEFGYTKPEGLPELSFDDYLACINSLRASFTKSNLPYLKHFKRTYKDPLPPYWMIVGCLSYGTLKGYFYQGSPDSVKRKLAAKLHIFNPNTNPEVHGDIKILSNWLETIRQVRNMVAHHDRFWNETSTRIVPKLPKHRSGLHANEWWGNDWDAFRTDSTGPAAFLTMENYLLQQIDGSAWKNKFISLMDRYPEILATEMGFPEDWRSLALWS,not soluble
14,MGSDKIHHHHHHMTAPMPNLGAVFDTVDPAMAHLAARIDRLILAIDAALTRQLNAILAASEFRALEARWRALDRVLTHAGRDGQVIVRILNVSWRALSRDLDRAVEFDQSHLHKLVYDGEFGMPGGLPFGVLVADYEVSATTDRARGDQVETLSRLAAVAAAAFCPIMLGAAPDLLGVDDFDQIAPYTDLTDAEGRRADPPMIRWRALRDRDDARFIGLVAPRIVLRGPRTRLSPTRADGFTFDEDPHRILSVAGSFAFATTVIAAFRASGWFAAIRGAAQDTDGGGRVAGWPGHDLGTDGHNLSRQSPATLRLTAAQEDALIARGIVPLSSLPLTDEAVFNANPSLHRPTRYDSPVASENARISAMLQYVLCTSRFAHYLKVMMREAIGSVAPPDVIQGHLDDWLRGYCLGNEDAGAELKAEYPLRNAGVEVTPIPGKPGAFAARIHLQPHFQLDDISTSFHLVSEAPAGLERTSA,not soluble
15,MELDFDKMNGLVPAIIQDNETRKVLMLGFMNKEAYDKTVETGKVTFFSRTKNRLWTKGEESGNFLHVVSIKADCDNDTLLIQADPAGPVCHTGTDTCWGEKNEEPVMFLKALQDFIDKRHEEMPQGSYTTSLFESGINKIAQKVGEEAVETVIEATNGTNERLIYEGADLIYHMIVLLTSKGYRIEDLARELQERHSSTWKKH,not soluble
16,MGSDKIHHHHHHVVYRYGLALVTQPPLVSLEDLGYGHGPGQRLFDGLSLHIHSGECHCICGPTGSGKSSLLALIAGLNERPFAGVLECQSGVQVALVMQDPQVQLLRRTLGAEVAFGLENQGVAADDMPAAVKSALIRVGLELPLDTCIDTLSLGQKYRVMLASQLVLNPRVLLLDEPWAQLDDEGVGQLMVTLARLKADGMALIIAEHHPAAFAGLLDFHWLLDQGRLQPAAAGKASGALRADILCRWNPNGLGGRKCLTLAPCDLVLPTLAQGGRGRSGSKGFLSARFASAAPEGRSLFRLDTPLVLRTGDIRLLLGDNGSGKSTLLKALAGLQDGVKLPVKLDGRIPNTAAGEVALMLQRPSRQLFELTVVEELSFSIRRRGLDEAQVAWVQAFLAIEHLAAVSPHKLSWGQQHLVLLAALVITEPRLLLLDDPFAGLDEQSLMACIKLLNWYLSRGGCCVLACHRDVTGFEQVARWQLKDGLLTEVEASGQALAARDGAQTKPWELAAGGMGR,not soluble
17,MDMMWISYHLKKGGRRLRIRIGIDIGSTHTDAVALEGKELIVADKVMTTPDLTTGLLNAISRVMKKLGERKNEVDTLMIGTTHGLNALHQGKGLNRVATIRIGLPAGEGVPPVFDWPEQLSNFVTYRYMVRGGHEYTGEEIVELDEGKIKEIAEAINGKVDAIAISSIFSVVNSSHEIRAREILREKG,not soluble
18,KSPVREPVDNLSPEERDARTVFCMQLAARIRPRDLEDFFSAVGKVRDVRIISDRNSRRSKGIAYVEFCEIQSVPLAIGLTGQRLLGVPIIVQASQAEKNRL,soluble
19,MGSDKIHHHHHHMDEIEKSLQNWGQQLENVHLPRWHELPDIELYMDQVITLIEKYLSPLITLEKHTLLTSSMVNNYVKHGLIPAPVKKRYNQKHLAFLIAITLLKQVLTLPEIKQGILFQGATVGIREAYNLFCQEQERAIYVIAAQAQEKEVQAKSQEPMGIEYLAVKAATMSFATKMFSEKVIELEQEYLKEMDEMTHE,not soluble
20,MGSDKIHHHHHHMQILFFMKIIRDPIHGYIEVEDFVLQIISTEIFQRLRHITQTGLAYLVYPGMRHTRFEHSLGVMHLAKELTRYIKINSEQYTDLDFINEEYLKLVGLSGLLHDIGHLPFSHTFENALSLAKEVYGIDVEYYGKKTHVIFGNRVIDYYLGNYLDKLSKNYDVVNFVQRVISSTPRTKEESLASLIISSPLDADRGDYLLRDSYFAGVGYGNFDIERIKRSLIYVNGKLAVLKKAIPVVEQFLLARMYMYETIYFHSVVGLYNAVLSHAVVKLIQKNLIPNVAPENYLKLNDVVIMSKLNEAGREFFDAIVYRKGFKRYKKDLTGNCYETLEKKRKEINEIMRENNGLILYHDFYDVPYSEDEIFVYDDDELKPLSTESKIVSSLTIIKKGIVGYHESAEDKMKKIYEILQECPL,not soluble
21,MAHSQVGIQLISESTEKTLAELIALCAEHNIIHNEKSPLALVQTDDRLELRKLDEPKLGAVYVDFVGGTMAHRRKFGGGRGEAVAKAVGIKGSALPTVIDATAGLGRDAFVLAAIGCQVRLVERHPVVFLLLQDGLNRAYQDEEIGEMLQQNLHLLNVQHINELDPNSDYADVVYLDPMYPHKQKSALVKKEMRVFQHLVGADLDADELLLPALQLAKKRVVVKRPDYAEFLCGKQPHFSHETKNHRFDIYMGASQC,soluble
